Test results as given in patent CN116355095A (SHANGHAI L&L VISION BIOPHARMACEUTICALS CO LTD, dated 2023).
Several values for one entry are separate records, joined by “and”; a condition that tells them apart may be missing. Identical values can stand only once. Blank lines part the entries; values can stand above or below the binder they belong to.

How the values were obtained:
[1] = biological target: T1, 人TIGIT重组蛋白 (hTIGIT; TIGIT-hFc 或 TIGIT-his) (human, UniProt Q495A1 22-141); assay: ELISA on coated hTIGIT
T1 construct: extracellular domain; not shown: C-terminal tag (-his, -hFc or -mFc)
T1 sequence (looked up): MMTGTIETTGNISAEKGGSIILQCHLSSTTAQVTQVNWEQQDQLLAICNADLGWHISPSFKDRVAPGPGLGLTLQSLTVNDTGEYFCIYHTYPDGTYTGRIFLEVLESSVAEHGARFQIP

恒河猴TIGIT-mFc [2] = biological target: T2, 恒河猴TIGIT-mFc (rhesus monkey; mouse, UniProt A0A5F8AKQ5 22-142; P01863 98-330 = IgG part); assay: ELISA on coated RhTIGIT-mFc
T2 construct: also called RhTIGIT-mFc; RhTIGIT
T2 sequence (P01863 other isoform, or with tags, fused parts or gaps): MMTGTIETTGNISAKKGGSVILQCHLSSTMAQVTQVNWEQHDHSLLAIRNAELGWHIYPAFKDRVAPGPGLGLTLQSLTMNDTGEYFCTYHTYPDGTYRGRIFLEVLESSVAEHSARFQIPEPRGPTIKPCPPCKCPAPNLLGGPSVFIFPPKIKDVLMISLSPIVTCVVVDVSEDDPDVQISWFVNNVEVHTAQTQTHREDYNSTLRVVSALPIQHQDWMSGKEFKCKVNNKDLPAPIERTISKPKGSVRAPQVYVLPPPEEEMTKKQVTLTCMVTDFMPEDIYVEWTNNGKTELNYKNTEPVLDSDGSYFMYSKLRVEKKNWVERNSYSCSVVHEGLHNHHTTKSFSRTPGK

[3] = biological target: T1, 人TIGIT重组蛋白 (hTIGIT; TIGIT-hFc 或 …); assay: ELISA on coated hTIGIT; reference Ref2
CHO-K1-T1001细胞表达的人TIGIT [4] = biological target: T3, CHO-K1-T1001细胞表达的人TIGIT (human, UniProt Q495A1 22-244); assay: cell ELISA on fixed hTIGIT+ CHO-K1 cells
T3 construct: whole, on cells; also called hTIGIT+细胞; CHO-K1 TIGIT+细胞系
T3 sequence (looked up): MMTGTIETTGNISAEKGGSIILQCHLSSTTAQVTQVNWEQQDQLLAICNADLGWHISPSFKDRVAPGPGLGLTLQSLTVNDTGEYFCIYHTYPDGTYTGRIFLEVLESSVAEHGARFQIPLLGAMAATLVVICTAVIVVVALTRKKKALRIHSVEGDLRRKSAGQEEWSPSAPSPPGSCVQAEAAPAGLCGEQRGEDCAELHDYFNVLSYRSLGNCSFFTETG

恒河猴TIGIT-mFc [5] = biological target: T2, 恒河猴TIGIT-mFc; assay: ELISA on coated RhTIGIT-mFc; reference Ref1
恒河猴TIGIT-mFc [6] = biological target: T2, 恒河猴TIGIT-mFc; assay: ELISA on coated RhTIGIT-mFc; reference Ref2
人TIGIT-hFc [7] = biological target: T4, 人TIGIT-hFc (human, UniProt Q495A1 22-141; P01857 99-330 = IgG part, limits assumed); assay: blocking ELISA: Bio-CD155 on coated TIGIT-hFc
T4 construct: extracellular domain;domain: IgG1 Fc区域; also called hTIGIT

CHO-K1-T1001细胞表达的人TIGIT [8] = biological target: T3, CHO-K1-T1001细胞表达的人TIGIT; assay: cell ELISA on fixed hTIGIT+ CHO-K1 cells; reference Ref2
人TIGIT-hFc [9] = biological target: T4, 人TIGIT-hFc; assay: blocking ELISA: Bio-CD155 on coated TIGIT-hFc; reference Ref1
人TIGIT-hFc [10] = biological target: T4, 人TIGIT-hFc; assay: blocking ELISA: Bio-CD155 on coated TIGIT-hFc; reference Ref2
小鼠TIGIT-his = biological target: T5, 小鼠TIGIT-his (mouse, UniProt P86176 29-148, limits assumed); assay: ELISA on coated antigen (Example 3)
T5 construct: Bought reagent; also called mouse TIGIT-his; muTIGIT-his
T5 sequence: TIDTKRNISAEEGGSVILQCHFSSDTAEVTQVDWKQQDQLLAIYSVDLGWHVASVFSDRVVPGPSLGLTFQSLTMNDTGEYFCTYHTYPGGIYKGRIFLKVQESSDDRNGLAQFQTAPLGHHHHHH

CHO-K1-T1001细胞表达的人TIGIT [11] = biological target: T3, CHO-K1-T1001细胞表达的人TIGIT; assay: cell ELISA on fixed hTIGIT+ CHO-K1 cells; reference Ref1
[12] = biological target: T1, 人TIGIT重组蛋白 (hTIGIT; TIGIT-hFc 或 …); assay: ELISA on coated antigen
LT023 (TIGIT/his) = biological target: T6, LT023 (TIGIT/his) (human, UniProt Q495A1 22-141); assay: double sandwich ELISA: coated TIGIT/his, detection with PD-L1/mFc (Example 6), used on serum samples
T6 construct: extracellular domain; Made in-house
T6 sequence: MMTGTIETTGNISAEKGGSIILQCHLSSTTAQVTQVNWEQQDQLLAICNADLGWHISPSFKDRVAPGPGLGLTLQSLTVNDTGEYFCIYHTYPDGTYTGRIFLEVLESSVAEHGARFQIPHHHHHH

人PD-1(hFc/his tag) = biological target: T7, 人PD-1(hFc/his tag) (human, UniProt Q15116 25-170); assay: ELISA on coated antigen
T7 construct: extracellular domain; not shown: C-terminal tag (hFc or his)
T7 sequence (Q15116 25-170): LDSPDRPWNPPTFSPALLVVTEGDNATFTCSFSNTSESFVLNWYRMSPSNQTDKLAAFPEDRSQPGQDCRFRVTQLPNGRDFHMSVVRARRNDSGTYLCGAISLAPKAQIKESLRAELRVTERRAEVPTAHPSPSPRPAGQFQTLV

EC50 [1]: 0.27 nM and 0.585 nM | EC50 (恒河猴TIGIT-mFc [2]): 0.658 nM | EC50 ratio to Ref2 [3]: 0.68 fold | EC50 (CHO-K1-T1001细胞表达的人TIGIT [4]): 0.101 nM | EC50 ratio to Ref1 (恒河猴TIGIT-mFc [5]): ~2 fold | EC50 ratio to Ref2 (恒河猴TIGIT-mFc [6]): ~2 fold | IC50 (人TIGIT-hFc [7]): 0.541 nM | EC50 ratio to Ref2 (CHO-K1-T1001细胞表达的人TIGIT [8]): 0.47 fold | IC50 ratio to Ref1 (人TIGIT-hFc [9]): 0.46 fold | IC50 ratio to Ref2 (人TIGIT-hFc [10]): 0.51 fold
B1: 嵌合抗体mab22c (antibody, human IgG1, kappa, V domains shown)
VH: EVKLVESGGGLVQPGGSLKLSCVASGFTFSSYTMSWVRQTPEKRLELVAEISSSGGSTYYPDTVKGRFTISRDNAKNTLFLQMNSLKSEDTAMYYCARPGLGAWFAYWGQGTLVTVSA
VL: DVLMTQTPLSLPVSLGDQASISCRSSQSIVHNSGNTYLEWYLQKPGQSPKLLIYKVSNRFSGVPDRFSGSGSGTDFTLKISRVEAEDLGIYYCFQFSHVPRTFGGGTKLEIKR
notes: also called 人鼠嵌合抗体mab22c

binding result (小鼠TIGIT-his): no binding (tested: 10μg/mL起始，5倍梯度稀释)
B3: IF091 (鼠源单克隆抗体mab22) (antibody, V domains shown)
VH: EVKLVESGGGLVQPGGSLKLSCVASGFTFSSYTMSWVRQTPEKRLELVAEISSSGGSTYYPDTVKGRFTISRDNAKNTLFLQMNSLKSEDTAMYYCARPGLGAWFAYWGQGTLVTVSA
VL: DVLMTQTPLSLPVSLGDQASISCRSSQSIVHNSGNTYLEWYLQKPGQSPKLLIYKVSNRFSGVPDRFSGSGSGTDFTLKISRVEAEDLGIYYCFQFSHVPRTFGGGTKLEIK
notes: Mouse antibody purified from ascites

The remaining lines, values behind:

B2: 人源化抗体mab22-h2 (antibody, human IgG1, kappa, V domains shown)
VH: EVQLVESGGGLVQPGGSLRLSCAASGFTFSSYTMSWVRQAPGKGLEWVSEISSSGGSTYYPDTVKGRFTISRDNSKNTLYLQMNSLRAEDTAVYYCARPGLGAWFAYWGQGTLVTVSS
VL: DVVMTQSPLSLPVTPGEPASISCRSSQSIVHNSGNTYLEWYLQKPGQSPKLLIYKVSNRFSGVPDRFSGSGSGTDFTLKISRVEAEDVGVYYCFQFSHVPRTFGGGTKVEIKR
notes: hIgG1, kappa
binding result [1]: binds | binding result (CHO-K1-T1001细胞表达的人TIGIT [4]): binds

B4: 人源化抗体mab22-h6 (antibody, human IgG1, kappa)
heavy: not shown
light: DIVMTQSPLSLPVTPGEPASISCRSSQSIVHNSGNTYLEWYLQKPGQSPKLLIYKVSNRFSGVPDRFSGSGSGTDFTLKISRVEAEDVGVYYCFQFSHVPRTFGGGTKVEIKRTVAAPSVFIFPPSDEQLKSGTASVVCLLNNFYPREAKVQWKVDNALQSGNSQESVTEQDSKDSTYSLSSTLTLSKADYEKHKVYACEVTHQGLSSPVTKSFNRGEC
notes: hIgG1, kappa
EC50 (CHO-K1-T1001细胞表达的人TIGIT [4]): 0.0133 nM | IC50 (人TIGIT-hFc [7]): 1.44 nM | EC50 ratio to Ref1 (CHO-K1-T1001细胞表达的人TIGIT [11]): 0.5 fold | IC50 ratio to Ref1 (人TIGIT-hFc [9]): 0.44 fold

B5: 双特异抗体LB621 (bispecific antibody)
heavy: not shown
light: DIVMTQSPLSLPVTPGEPASISCRSSQSIVHNSGNTYLEWYLQKPGQSPKLLIYKVSNRFSGVPDRFSGSGSGTDFTLKISRVEAEDVGVYYCFQFSHVPRTFGGGTKVEIKRTVAAPSVFIFPPSDEQLKSGTASVVCLLNNFYPREAKVQWKVDNALQSGNSQESVTEQDSKDSTYSLSSTLTLSKADYEKHKVYACEVTHQGLSSPVTKSFNRGEC
notes: Whole mab22-h6 antibody with an anti-PD-L1 (Atezo) scFv joined to its heavy chain; the printed heavy chain carries the scFv at the C-terminus with the last K changed to A
binding result [12]: binds | binding result (LT023 (TIGIT/his)): binds

B6: 双特异抗体LB615 (bispecific antibody)
heavy: not shown
light: DIVMTQSPLSLPVTPGEPASISCRSSQSIVHNSGNTYLEWYLQKPGQSPKLLIYKVSNRFSGVPDRFSGSGSGTDFTLKISRVEAEDVGVYYCFQFSHVPRTFGGGTKVEIKRTVAAPSVFIFPPSDEQLKSGTASVVCLLNNFYPREAKVQWKVDNALQSGNSQESVTEQDSKDSTYSLSSTLTLSKADYEKHKVYACEVTHQGLSSPVTKSFNRGEC
binding result [12]: binds

B7: 双特异抗体LB610 (bispecific antibody, human IgG1, kappa)
heavy: not shown
light: DIVMTQSPLSLPVTPGEPASISCRSSQSIVHNSGNTYLEWYLQKPGQSPKLLIYKVSNRFSGVPDRFSGSGSGTDFTLKISRVEAEDVGVYYCFQFSHVPRTFGGGTKVEIKRTVAAPSVFIFPPSDEQLKSGTASVVCLLNNFYPREAKVQWKVDNALQSGNSQESVTEQDSKDSTYSLSSTLTLSKADYEKHKVYACEVTHQGLSSPVTKSFNRGEC
binding result [12]: binds | binding result (人PD-1(hFc/his tag)): binds

B8: 人源化抗体mab22-h1 (antibody, human IgG1, kappa, V domains shown)
VH: EVQLVESGGGLVQPGGSLRLSCAASGFTFSSYTMSWVRQAPGKGLEWVSEISSSGGSTYYPDTVKGRFTISRDNSKNTLYLQMNSLRAEDTAVYYCARPGLGAWFAYWGQGTLVTVSS
VL: DIVMTQSPLSLPVTPGEPASISCRSSQSIVHNSGNTYLEWYLQKPGQSPQLLIYKVSNRFSGVPDRFSGSGSGTDFTLKISRVEAEDVGVYYCFQFSHVPRTFGGGTKVEIKR
notes: hIgG1, kappa
binding result [1]: binds | binding result (CHO-K1-T1001细胞表达的人TIGIT [4]): binds
